According to patent US20250361268A1, “NOVEL ANTI-INFLAMMATORY PEPTIDE AND USE THEREOF” (NOVACELL TECHNOLOGY INC., priority 2022, published 2025):

Biological target: T1, FPR1 (UniProt P21462 1-350, limits assumed)
T1 sequence (looked up): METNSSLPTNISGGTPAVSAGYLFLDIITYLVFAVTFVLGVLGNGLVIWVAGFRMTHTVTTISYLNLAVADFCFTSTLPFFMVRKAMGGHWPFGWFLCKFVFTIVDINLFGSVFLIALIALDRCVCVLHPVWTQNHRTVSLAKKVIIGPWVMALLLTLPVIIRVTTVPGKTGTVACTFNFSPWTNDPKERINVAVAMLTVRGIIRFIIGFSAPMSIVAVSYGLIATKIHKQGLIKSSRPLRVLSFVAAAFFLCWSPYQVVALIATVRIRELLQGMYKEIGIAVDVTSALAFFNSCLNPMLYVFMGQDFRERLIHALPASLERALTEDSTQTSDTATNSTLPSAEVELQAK
Experiment: cell-based or functional assay

Row | Binder | EC50 for [Ca2+] [µM]
1 | MKYKPM (HELM PEPTIDE1{[CCCCCCCC(=O)[*:2]].M.K.Y.K.P.[dM].[am]}$$$$V2.0; SMILES CCCCCCCC(=O)N[C@@H](CCSC)C(=O)N[C@@H](CCCCN)C(=O)N[C@@H](Cc1ccc(O)cc1)C(=O)N[C@@H](CCCCN)C(=O)N1CCC[C@H]1C(=O)N[C@H](CCSC)C(N)=O) [peptide of SEQ ID NO 73] | > 10
2 | MKYWYM (HELM PEPTIDE1{[ac].M.K.Y.W.Y.[dM].[am]}$$$$V2.0; SMILES CSCC[C@H](NC(C)=O)C(=O)N[C@@H](CCCCN)C(=O)N[C@@H](Cc1ccc(O)cc1)C(=O)N[C@@H](Cc1c[nH]c2ccccc12)C(=O)N[C@@H](Cc1ccc(O)cc1)C(=O)N[C@H](CCSC)C(N)=O) [peptide of SEQ ID NO 90] | > 10
3 | RWRYRYM (HELM PEPTIDE1{R.W.R.Y.R.Y.[dM].[am]}$$$$V2.0; N-terminus assumed; SMILES CSCC[C@@H](NC(=O)[C@H](Cc1ccc(O)cc1)NC(=O)[C@H](CCCNC(=N)N)NC(=O)[C@H](Cc1ccc(O)cc1)NC(=O)[C@H](CCCNC(=N)N)NC(=O)[C@H](Cc1c[nH]c2ccccc12)NC(=O)[C@@H](N)CCCNC(=N)N)C(N)=O) [peptide of SEQ ID NO 48] | > 10
4 | KMKYKPM (HELM PEPTIDE1{K.M.K.Y.K.P.[dM].[am]}$$$$V2.0; N-terminus assumed; SMILES CSCC[C@H](NC(=O)[C@@H](N)CCCCN)C(=O)N[C@@H](CCCCN)C(=O)N[C@@H](Cc1ccc(O)cc1)C(=O)N[C@@H](CCCCN)C(=O)N1CCC[C@H]1C(=O)N[C@H](CCSC)C(N)=O) [peptide of SEQ ID NO 66] | > 10
5 | HMRYKYM (HELM PEPTIDE1{H.M.R.Y.K.Y.[dM].[am]}$$$$V2.0; N-terminus assumed; SMILES CSCC[C@H](NC(=O)[C@@H](N)Cc1c[nH]cn1)C(=O)N[C@@H](CCCNC(=N)N)C(=O)N[C@@H](Cc1ccc(O)cc1)C(=O)N[C@@H](CCCCN)C(=O)N[C@@H](Cc1ccc(O)cc1)C(=O)N[C@H](CCSC)C(N)=O) [peptide of SEQ ID NO 44] | > 10
6 | MKYWYM (HELM PEPTIDE1{[CCCC(=O)[*:2]].M.K.Y.W.Y.[dM].[am]}$$$$V2.0; SMILES CCCC(=O)N[C@@H](CCSC)C(=O)N[C@@H](CCCCN)C(=O)N[C@@H](Cc1ccc(O)cc1)C(=O)N[C@@H](Cc1c[nH]c2ccccc12)C(=O)N[C@@H](Cc1ccc(O)cc1)C(=O)N[C@H](CCSC)C(N)=O) [peptide of SEQ ID NO 91] | > 10
7 | WRYWYM (HELM PEPTIDE1{W.R.Y.W.Y.[dM].[am]}$$$$V2.0; N-terminus assumed; SMILES CSCC[C@@H](NC(=O)[C@H](Cc1ccc(O)cc1)NC(=O)[C@H](Cc1c[nH]c2ccccc12)NC(=O)[C@H](Cc1ccc(O)cc1)NC(=O)[C@H](CCCNC(=N)N)NC(=O)[C@@H](N)Cc1c[nH]c2ccccc12)C(N)=O) [peptide of SEQ ID NO 79] | > 10
8 | RMRYKVM (HELM PEPTIDE1{[CCCCCCCC(=O)[*:2]].R.M.R.Y.K.V.[dM].[am]}$$$$V2.0; SMILES CCCCCCCC(=O)N[C@@H](CCCNC(=N)N)C(=O)N[C@@H](CCSC)C(=O)N[C@@H](CCCNC(=N)N)C(=O)N[C@@H](Cc1ccc(O)cc1)C(=O)N[C@@H](CCCCN)C(=O)N[C@H](C(=O)N[C@H](CCSC)C(N)=O)C(C)C) [peptide of SEQ ID NO 8] | > 10
9 | KMKYKPM (HELM PEPTIDE1{[CCCCCCCC(=O)[*:2]].K.M.K.Y.K.P.[dM].[am]}$$$$V2.0; SMILES CCCCCCCC(=O)N[C@@H](CCCCN)C(=O)N[C@@H](CCSC)C(=O)N[C@@H](CCCCN)C(=O)N[C@@H](Cc1ccc(O)cc1)C(=O)N[C@@H](CCCCN)C(=O)N1CCC[C@H]1C(=O)N[C@H](CCSC)C(N)=O) [peptide of SEQ ID NO 69] | > 10
10 | MRYWYM (HELM PEPTIDE1{[CCCCCCCC(=O)[*:2]].M.R.Y.W.Y.[dM].[am]}$$$$V2.0; SMILES CCCCCCCC(=O)N[C@@H](CCSC)C(=O)N[C@@H](CCCNC(=N)N)C(=O)N[C@@H](Cc1ccc(O)cc1)C(=O)N[C@@H](Cc1c[nH]c2ccccc12)C(=O)N[C@@H](Cc1ccc(O)cc1)C(=O)N[C@H](CCSC)C(N)=O) [peptide of SEQ ID NO 88] | > 10
11 | MRYRYM (HELM PEPTIDE1{[ac].M.R.Y.R.Y.[dM].[am]}$$$$V2.0; SMILES CSCC[C@H](NC(C)=O)C(=O)N[C@@H](CCCNC(=N)N)C(=O)N[C@@H](Cc1ccc(O)cc1)C(=O)N[C@@H](CCCNC(=N)N)C(=O)N[C@@H](Cc1ccc(O)cc1)C(=O)N[C@H](CCSC)C(N)=O) [peptide of SEQ ID NO 49] | > 10
12 | MRYKYM (HELM PEPTIDE1{[CCCC(=O)[*:2]].M.R.Y.K.Y.[dM].[am]}$$$$V2.0; SMILES CCCC(=O)N[C@@H](CCSC)C(=O)N[C@@H](CCCNC(=N)N)C(=O)N[C@@H](Cc1ccc(O)cc1)C(=O)N[C@@H](CCCCN)C(=O)N[C@@H](Cc1ccc(O)cc1)C(=O)N[C@H](CCSC)C(N)=O) [peptide of SEQ ID NO 43] | > 10
13 | RMRYWYM (HELM PEPTIDE1{[CCCCCCCC(=O)[*:2]].R.M.R.Y.W.Y.[dM].[am]}$$$$V2.0; SMILES CCCCCCCC(=O)N[C@@H](CCCNC(=N)N)C(=O)N[C@@H](CCSC)C(=O)N[C@@H](CCCNC(=N)N)C(=O)N[C@@H](Cc1ccc(O)cc1)C(=O)N[C@@H](Cc1c[nH]c2ccccc12)C(=O)N[C@@H](Cc1ccc(O)cc1)C(=O)N[C@H](CCSC)C(N)=O) [peptide of SEQ ID NO 84] | > 10
14 | MKYKPM (HELM PEPTIDE1{[ac].M.K.Y.K.P.[dM].[am]}$$$$V2.0; SMILES CSCC[C@H](NC(C)=O)C(=O)N[C@@H](CCCCN)C(=O)N[C@@H](Cc1ccc(O)cc1)C(=O)N[C@@H](CCCCN)C(=O)N1CCC[C@H]1C(=O)N[C@H](CCSC)C(N)=O) [peptide of SEQ ID NO 71] | > 10
15 | KMKYKVM (HELM PEPTIDE1{[CCCCCCCC(=O)[*:2]].K.M.K.Y.K.V.[dM].[am]}$$$$V2.0; SMILES CCCCCCCC(=O)N[C@@H](CCCCN)C(=O)N[C@@H](CCSC)C(=O)N[C@@H](CCCCN)C(=O)N[C@@H](Cc1ccc(O)cc1)C(=O)N[C@@H](CCCCN)C(=O)N[C@H](C(=O)N[C@H](CCSC)C(N)=O)C(C)C) [peptide of SEQ ID NO 12] | > 10
16 | IKFWYM (HELM PEPTIDE1{I.K.F.W.Y.[dM].[am]}$$$$V2.0; N-terminus assumed; SMILES CC[C@H](C)[C@H](N)C(=O)N[C@@H](CCCCN)C(=O)N[C@@H](Cc1ccccc1)C(=O)N[C@@H](Cc1c[nH]c2ccccc12)C(=O)N[C@@H](Cc1ccc(O)cc1)C(=O)N[C@H](CCSC)C(N)=O) [peptide of SEQ ID NO 128] | > 10
17 | MKYKPM (HELM PEPTIDE1{[CCCC(=O)[*:2]].M.K.Y.K.P.[dM].[am]}$$$$V2.0; SMILES CCCC(=O)N[C@@H](CCSC)C(=O)N[C@@H](CCCCN)C(=O)N[C@@H](Cc1ccc(O)cc1)C(=O)N[C@@H](CCCCN)C(=O)N1CCC[C@H]1C(=O)N[C@H](CCSC)C(N)=O) [peptide of SEQ ID NO 72] | > 10
18 | MRYYYM (HELM PEPTIDE1{[ac].M.R.Y.Y.Y.[dM].[am]}$$$$V2.0; SMILES CSCC[C@H](NC(C)=O)C(=O)N[C@@H](CCCNC(=N)N)C(=O)N[C@@H](Cc1ccc(O)cc1)C(=O)N[C@@H](Cc1ccc(O)cc1)C(=O)N[C@@H](Cc1ccc(O)cc1)C(=O)N[C@H](CCSC)C(N)=O) [peptide of SEQ ID NO 126] | > 10
19 | KMKYKVM (HELM PEPTIDE1{K.M.K.Y.K.V.[dM].[am]}$$$$V2.0; N-terminus assumed; SMILES CSCC[C@H](NC(=O)[C@@H](N)CCCCN)C(=O)N[C@@H](CCCCN)C(=O)N[C@@H](Cc1ccc(O)cc1)C(=O)N[C@@H](CCCCN)C(=O)N[C@H](C(=O)N[C@H](CCSC)C(N)=O)C(C)C) [peptide of SEQ ID NO 9] | > 10
20 | KMKYKVM (HELM PEPTIDE1{[ac].K.M.K.Y.K.V.[dM].[am]}$$$$V2.0; SMILES CSCC[C@H](NC(=O)[C@H](CCCCN)NC(C)=O)C(=O)N[C@@H](CCCCN)C(=O)N[C@@H](Cc1ccc(O)cc1)C(=O)N[C@@H](CCCCN)C(=O)N[C@H](C(=O)N[C@H](CCSC)C(N)=O)C(C)C) [peptide of SEQ ID NO 10] | > 10
21 | RWRYWYM (HELM PEPTIDE1{R.W.R.Y.W.Y.[dM].[am]}$$$$V2.0; N-terminus assumed; SMILES CSCC[C@@H](NC(=O)[C@H](Cc1ccc(O)cc1)NC(=O)[C@H](Cc1c[nH]c2ccccc12)NC(=O)[C@H](Cc1ccc(O)cc1)NC(=O)[C@H](CCCNC(=N)N)NC(=O)[C@H](Cc1c[nH]c2ccccc12)NC(=O)[C@@H](N)CCCNC(=N)N)C(N)=O) [peptide of SEQ ID NO 77] | > 10
